# Results reported in article PMC5003812 (Cell Reports, 2016).
# B1: GST-ATM fragment spanning 2,842–3,056 aa (domain or fragment)
# chain: PAIWFEKRLAYTRSVATSSIVGYILGLGDRHVQNILINEQSAELVHIDLGVAFEQGKILPTPETVPFRLTRDIVDGMGITGVEGVFRRCCEKTMEVMRNSQETLLTIVEVLLYDPLFDWTMNPLKALYLQQRPEDETELHPTLNADDQECKRNLSDIDQSFNKVAERVLMRLQEKLKGVEEGTVLSVGGQVNLLIQQAIDPKNLSRLFPGWKAWV
# Molecular target: recombinant human FOXO3a (human, UniProt O43524 1-673)
# Experiment: pull-down
# recombinant human FOXO3a, sequence (O43524 whole entry): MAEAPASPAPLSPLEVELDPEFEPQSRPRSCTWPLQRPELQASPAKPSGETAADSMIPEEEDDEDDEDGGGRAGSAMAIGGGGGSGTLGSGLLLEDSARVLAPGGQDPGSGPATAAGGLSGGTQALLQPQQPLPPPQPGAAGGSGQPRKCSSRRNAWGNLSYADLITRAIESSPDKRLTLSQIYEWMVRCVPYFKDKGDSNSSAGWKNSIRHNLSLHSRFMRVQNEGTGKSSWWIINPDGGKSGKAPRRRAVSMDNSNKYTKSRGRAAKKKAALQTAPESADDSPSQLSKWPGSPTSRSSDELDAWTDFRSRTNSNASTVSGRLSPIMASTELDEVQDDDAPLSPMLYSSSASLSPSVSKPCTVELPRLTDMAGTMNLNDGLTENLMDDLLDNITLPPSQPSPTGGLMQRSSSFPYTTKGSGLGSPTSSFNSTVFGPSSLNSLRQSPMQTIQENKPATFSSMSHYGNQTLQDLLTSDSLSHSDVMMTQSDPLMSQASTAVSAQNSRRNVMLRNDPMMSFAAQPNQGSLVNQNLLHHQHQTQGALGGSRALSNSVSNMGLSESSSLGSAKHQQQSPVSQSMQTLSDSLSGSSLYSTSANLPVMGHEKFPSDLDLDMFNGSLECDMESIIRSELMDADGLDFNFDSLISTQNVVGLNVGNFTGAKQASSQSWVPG
binder,measurement,value
B1,binding result,binds
